Experimental data as given in the nanobody polyreactivity screen of Harvey et al. (2022).

Test: yeast display, Sf9 membrane polyspecificity reagent, FACS + sequencing; frameworks hold sequencing errors
Method in brief: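 Galactose-induced (36–48 hours) yeast carrying a synthetic nanobody display library were exposed to 10% biotinylated, detergent-solubilized Sf9 membrane reagent at 4 °C for 1 hour. FACS followed streptavidin microbead enrichment, using low and high (top ~1%) gates for expression (anti-HA) and reagent binding (streptavidin). Colony PCR, MiSeq 2 × 250 sequencing and CDR-length filtering followed. Labels for polyreactivity reflect the gate of origin.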

Sequence	polyreactivity (PSR sort gate)
QVQLVESGGGLVQAGGSLRLSCAASGRTFRKYGMGWYRQAPGKERELVAAITRSGGSTYYADSVKGRFTISRDNAKHTVYLQMNSLKPEDTSVSYCARSPVVVGSFLSYDYWGQGTQVTVSS	high polyreactivity
QVQLVESGGGLVQAGGSLRLSCAASGRTFRLYALGWYRQAPGKERELVAAITRGGRTNYADSVTGRFTISRDNAKNTVYLQMNSLKPEDTAVYYCAARYVERHTDYYYWGQGTQVTVSS	low polyreactivity
QVQLVESGGGLVQAGGSLRLSCAASGRTFRLYAMGWYRQAPGKERELVAAISARGSSTYYADSVKGRFTISRDNAKNTVYLQMNSLKPEDTAVYYCAAKRSYPYGSGYWGQGTQVTVSS	high polyreactivity
QVQLVESGGGLVQAGGSLRLSCAASGRTFRLYAMGWYRQAPGKERELVASISRSVGSTYYADSVKGRFTISRDNAKNTVYLQMNSLKPVDTAVYYCAARSYIPGGWYGAYYYWGQGTQVTVSS	high polyreactivity
QVQLVESGGGLVQAGGSLRLSCAASGRTFRNNAMGWYRQAPGKERELVAAITSGGSTNYADSVKGRFTISRDNAKNTVYLQMNSLKPEDTAVYYCAKDFWYVTGGWSSGMDYWGQGTQVTVSS	low polyreactivity
QVQLVESGGGLVQAGGSLRLSCAASGRTFRNYAMGWYRQAPGKERELVAAISASGGSTYYADSVKGRFTISRDNAKNTVYLQMNSLKPEDTAVYYCAARYQGFGYRKYDYWGQGTQVTVSS	high polyreactivity
QVQLVESGGGLVQAGGSLRLSCAASGRTFRPYALGGYRPAPGKERELVAVITSGGSTYYADSVKGRFTISRDNAKNTVYLQMNSLKPEDTAVYYCARVYRSYAWSGYDYWGQGTQVTVSS	high polyreactivity
QVQLVESGGGLVQAGGSLRLSCAASGRTFRPYAMGWYRQAPGKEREFVARITWSGGTTYYADSVKGRFTISRDNAKNTVYLQMNRLKPEDTAVYYCAARVSRQTPVISYNYWGQGTQVTVSS	low polyreactivity
QVQLVESGGGLVQAGGSLRLSCAASGRTFRPYAMGWYRQAPGKERELDAAIDSSGTSTYYADSVKGRFTISRDNAKNTVYLQMNSLKPEDTAVYYCAKAWPDHWFSRYDYWGQGTQVTVSS	low polyreactivity
QVQLVESGGGLVQAGGSLRLSCAASGRTFRPYAMGWYRQAPGKERELVAAIDSSGTSTYYADSVKGRFTISRDNAKNTVYLKMNSLKPEDTAVYYCAKAWPDHWYSRYDYWGQGTQVTVSS	low polyreactivity
QVQLVESGGGLVQAGGSLRLSCAASGRTFRRNAMGWYRQAPGKERELVAAISFSAGRTYYADSVKGRFTISRDNAKNTVYLQMNSLKPEDTAVYYCNALRQDTGHYPYDYWGQGTQVTVSS	low polyreactivity
QVQLVESGGGLVQAGGSLRLSCAASGRTFRRNAMGWYRQAPGKERELVAAISWSGSRTYYADSVKGRFTISRDNAKKTVYLQMNSLKPEDTAVYYCAAEVWSTQGSATVQYDYLGQGTQVTVSS	high polyreactivity
QVQLVESGGGLVQAGGSLRLSCAASGRTFRRNAMGWYRQAPGKERELVASITGTGSTTYYADSVKGRFTISRDNAKNTVYLQMNSLKPEDTAVYYCAASSKYQDYWGQGTQVTVSS	high polyreactivity
QVQLVESGGGLVQAGGSLRLSCAASGRTFRRYAMGWYRQAPGKERELVAAITGAGSTYYADSVKGRFTISRDNAKNTVYFQMNSLKPEDTAVYYCAATPDPPHSYEYWGQGTKVTVSS	low polyreactivity
QVQLVESGGGLVQAGGSLRLSCAASGRTFRRYAMGWYRQAPGKERELVAAITYRGGSTYYADSVKGRFTISRDNAKNTVYLQMNSLKPEDTAVYYCNKQGNGQLGTTQGRYDYWGQGTQVTVSS	high polyreactivity
QVQLVESGGGLVQAGGSLRLSCAASGRTFRRYAMGWYRQAPGKERELVAVISGGGTYYADSVKGRFTISRDNAKNTVYLQMNSLKPEDTAVYYCATDSYSSLYGYDYWGQGTQVTVSS	high polyreactivity
QVQLVESGGGLVQAGGSLRLSCAASGRTFRRYAMGWYRQAPGKERELVAVISRGGSTHYADSVKGRFTISRDNAKNTVYLQMNSLKPEDTAVYYCNAVVSVYTQDLDYWGQGTQVTVSS	high polyreactivity
QVQLVESGGGLVQAGGSLRLSCAASGRTFRRYVMGRYRQAPGKEMEMVARITTSGGNTYYADSVKGRFTISRDNAKITVYLQMNSMKPEVTAVYYCAADFLRTYKEYNLGYWGQGTQVTVSS	low polyreactivity
QVQLVESGGGLVQAGGSLRLSCAASGRTFRSYAMGWSRQAPGKGRELVAAISRSGGTTTYADSVKGRFTISRDNAKNTVYLQMNSLKPEDTAVYYCARGQNRYWQFHGAYDYWGQGTQVTVSS	high polyreactivity
QVQLVESGGGLVQAGGSLRLSCAASGRTFRSYDMGWYRQAPGKERELVAAISKRGGNTYYADSVKGRFTISRDNAKNTVYLQMNSLKPEDTAVYYCAKRVSGSPPTAGSLSDSWGQGTQVTVSS	high polyreactivity
QVQLVESGGGLVQAGGSLRLSCAASGRTFRTNAIGWYRQATGKERELVAAIRASTGSTYYADSVKGRFTISRDNAKNSVYLQMNSLKPEDTAFYYCAARLRRGLTATWYYYWGQGTQVTVSS	high polyreactivity
QVQLVESGGGLVQAGGSLRLSCAASGRTFRTNAMGWYRQAPGKERELVAAISTGGGIANYADSVKGRCTISRDNAKNTVYLQMNSLKPEDTAVYYCNADIYTWFQIGGYQYDYWGQGTQVTVSS	low polyreactivity

Sequence	polyreactivity (PSR sort gate)
QVQLVESGGGLVQAGGSLRLSCAASGRTFRTNTMGWYRQAPGKERELVAAIRYIGGSTYYADSVKGRFTISRDNAKNTFYLLMNSLKPEDTAVYYCAAYRYGSRYGYEYWGQGTQVTVSS	high polyreactivity
QVQLVESGGGLVQAGGSLRLSCAASGRTFRVNAMGWYRQAPGKERELVAAITWRGGSTYYADSVKGRFTISRDNAKNTVYLQMNSLKPEDTAVYYCAARYSSSSRRQKSDYWGQGTQVTVSS	high polyreactivity
QVQLVESGGGLVQAGGSLRLSCAASGRTFRVYAMGWDRQAPGKERELVAAISGRGGSTYYADSVKGRFSISRDNAMNTVYLQMNSLKPEDTAVDYCAKSNPYLRLGEGNYWGQGTQVTVSS	high polyreactivity
QVQLVESGGGLVQAGGSLRLSCAASGRTFRVYAMGWYRQAPGKEREFVAAISYSGGRTNYADSVKGRFTISRDNAKNTVYLQMNSLKPEDTAVYYCARTKQEYTFGQFYLGDYWGQGTQVTVSS	low polyreactivity
QVQLVESGGGLVQAGGSLRLSCAASGRTFRVYTMGWYRQAPGKERELVAAISSRGGSTYYADSVKGRFTISRDNAKNTVYLQMNSLKPEDTAVYYCAAVSYYPARYGYWGQGTQVTVSS	high polyreactivity
QVQLVESGGGLVQAGGSLRLSCAASGRTFRWYAMGWDRQAPGKERELVAAISQSGGSTYYADSVKGRFTISRDNAKNTVYLQMNSLKPEDTAVYYCNAYPPYGGYAYGRGDYWGQGTQVTVSS	high polyreactivity
QVQLVESGGGLVQAGGSLRLSCAASGRTFRWYAMGWYRQAPGKERELVAAISSSGTRTYYADSVKGRFTISRDNAKNTVYLQMNSLKPEDTAVYYCAATWRVGYDYWGQGTQVTVSS	high polyreactivity
QVQLVESGGGLVQAGGSLRLSCAASGRTFRWYAMGWYRQAPGKERELVASITWSGGSTYYADSVKGRFTISRDNAKNTVYLQMNSLKPEDTAVYYCAARDRRGAYYYWGQGTQVTVSS	high polyreactivity
QVQLVESGGGLVQAGGSLRLSCAASGRTFRWYAMGWYRQAPGKESELVASISRGGSTSYADSVKGRFTISRDNAKNTVYLQMNSLKPEDTAVYYCAAGGFARTISYYWGQGTQVTVSS	high polyreactivity
QVQLVESGGGLVQAGGSLRLSCAASGRTFRWYTMGWYRQAPGKEREFVAAITWSGSSTDYADSVKGRFTISRDNAKNTVYLQMNSLKPEDTAVYYCAAENRRSRDDYWGQGTQVTVSS	high polyreactivity
QVQLVESGGGLVQAGGSLRLSCAASGRTFRYNAMGWYLQAPGKERELVAAITRRDGRTYYADSVKGRFTISRDNAKNTVYLQMNSLKPEDTAVYYCGVEYWVVNAQGYDYWGQGTQVTVSS	high polyreactivity
QVQLVESGGGLVQAGGSLRLSCAASGRTFRYNAMGWYRQAPGKERELVAAINWNGGSTYYADSVKGRFTISRDNAKNTVYLQMNSLKPEDTAVYYCAAYPGHGVTYWDRYYYWGQGTQVTVSS	high polyreactivity
QVQLVESGGGLVQAGGSLRLSCAASGRTFRYNAMGWYRQAPGKERELVAAISRSGGRTYYADSVKGRFTISRDNAKNTVYLQMNSLKPEDTAVYYCAAYYYTAGDSSSRYDYWGQGTQVTVSS	high polyreactivity
QVQLVESGGGLVQAGGSLRLSCAASGRTFRYNAMGWYRQAPGKERELVAVINSNGGSTYYADSVKGRFTISRDNAKNTVYLQMNSLKPEDTAVYYCAADYLRIQEYDYWGQGTQVTVSS	low polyreactivity
QVQLVESGGGLVQAGGSLRLSCAASGRTFRYNDRGWYRQAPGKERELVASISRISGSTYYADSVKGRFTISRDNAKNTVYLQMNSLKAEVTAVFYCAATVKLKQYPYFGFGYWGQGTQVTVSS	high polyreactivity
QVQLVESGGGLVQAGGSLRLSCAASGRTFRYNTMGWYRQAPGKERELVASISSGDRTYYADSVKGRFTISRDNAKNTVYLQMNSLKPEDTAVYYCAKDVGYWYYYWGQGTQVTVSS	high polyreactivity
QVQLVESGGGLVQAGGSLRLSCAASGRTFRYYALGWYRQAPGKERELVASITGSGGSTTYADSVKGRFTISRDNAKNTVYLLMNSLKPEDTAVYYCAVRYPYYSYRAKLGYWGQGTQVTVSS	high polyreactivity
QVQLVESGGGLVQAGGSLRLSCAASGRTFRYYAMGRSRQAPGTERELVAAISRSGGRTNYADSVKGRFTISRDNAKNTVYLQMNSLIPEDTAVDYCAADFRYTFDSWGQGTQVTVSS	high polyreactivity
QVQLVESGGGLVQAGGSLRLSCAASGRTFRYYAMGWYRQAPGKEREFVAAITKRGGSTYYADSVKGRFTISRDNAKNTVYLQMNSLKPEDTAVYYCAAYPAAQFSTFSYDSWGQGTQVTVSS	high polyreactivity
QVQLVESGGGLVQAGGSLRLSCAASGRTFRYYAMGWYRQAPGKERELVAAIDTSSGSTYYADSVKGRFTISRDYAKNTVYLQMNSLKPEDTAVYYCNANWWIPLIYDYWGQGTQVTVSS	low polyreactivity
QVQLVESGGGLVQAGGSLRLSCAASGRTFRYYAMGWYRQAPGKERELVAAISSRGNTYYADSVKGRFTISRDNAKNTVYLQLNSLKPEDTAVYYCAAYVYRVQYDFVYWGQGTQVTVSS	high polyreactivity
